This data set can be described thus: yeast display, Sf9 membrane polyspecificity reagent, FACS + sequencing; frameworks hold sequencing errors. The gist of the method: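 Genes from sorted yeast were amplified by colony PCR, read by MiSeq 2 × 250 sequencing and filtered on CDR length. These cells carried a synthetic nanobody library in Saccharomyces cerevisiae BJ5465 and were sorted by FACS into low and high (top ~1%) gates on anti-HA and streptavidin fluorescence. Polyreactivity is labelled according to the gate of origin.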
In the case of “QVQLVESGGGLVQAGGTLRLSCAASGRTFRNNAMGWYRQAPGKEWELVAAISLRGGSTYYADSVKGRFTISRDNAKNTVYLLMNSLKPEDTAVYYCATRSRGWIAPPWQGSDGYYYWGQGTQVTVSS”, the “polyreactivity (PSR sort gate)” value is recorded as “low polyreactivity”.
The value for “QVQLVESGGGLVQAGGTLRLSCAASGRTFTSYTMGWYRQAPGKERELVATISFGGGRTYADSVKGRFTISRDNAKNTVYLQMNSLKTEDTAVYYCNAGYYWRLHWWYYYWGQGTQVTVSS” was “high polyreactivity”; that for “QVQLVESGGGLVQAGGTLRLSCAASGRTFTYYAMGWSRQAPGKEREIVSAISSTGTSTYYADSVKGRFTISRDNAKNTVYLQMNSLKPEDTAVYYCNARVATYRLHSKFYYWGQGTQVTVSS” was “high polyreactivity”.
For “QVQLVESGGGLVQAGGTLRLSCAASGRTLGANALGWYRQAPGKERELVAAITQSGSSTYYADSVKGRFTISRDNAKNTVYLQMNSLKPEDTAVYYCAAEWNVVLAGAVYFRYNYWGQGTQVNVSS” the value was “low polyreactivity”.
Turning to “QVQLVESGGGLVQAGGTLRLSCAASGRTYYPNTMGWYRQAPGKERELVATITRSGGNTYADSVKGRFTISRDNAKNTVYFQMTSLKPEDTAVYYCAARNGRIAWMNYWGQGTQVTVSS”, the “polyreactivity (PSR sort gate)” value is listed as “low polyreactivity”.
The value for “QVQLVESGGGLVQAGGTLRLSCAASGSIFGRNTMGWYRQAPGKERELVAAINSGGGTYYADSVKGRFTISRDNAKNTVYLQMNSLKPEDTAVYYCAKASRAVRHGDYWGQRTQVTVSS” was “low polyreactivity”.
For “QVQLVESGGGLVQAGGTLRLSCAASGSIFIPYAMGWYRQEPGKERELVAAISGSGTSTNYADSVKGRFTISRDNAKITVYFQMISLKPEDTAVYYCAKGYSNFYRSDYWGQGTQVTVSS”, the “polyreactivity (PSR sort gate)” value is “high polyreactivity”.
For “QVQLVESGGGLVQAGGTLRLSCAASGSIFPDNTMGWYRQAPGKERELVAAIDGRGVTTYYADSVKGRFTISRDNAKNTVYLHMNSLKPEDTAVYYCAAQPWLRYYYWGQGTQVTVSS”, the “polyreactivity (PSR sort gate)” value is given as “low polyreactivity”.
On to “QVQLVESGGGLVQAGGTLRLSCAASGSILQYNAMGWYRQATVKVSELVAAISRTGGSTYYADSVKGRFTISRDIAMNNLYLQMNSLKPEDTAVYYCNVYLGILYKYDYWGQGNQVTVSS”, for which the “polyreactivity (PSR sort gate)” value is “low polyreactivity”.
For “QVQLVESGGGLVQAGGTLRLSCAASGSMFDGNAMGWYRQAPGKERELVAAISRRGGSTYYADSVKGRFTISRDNAKNTVYLQKNSLKPEDTAVYYCNAYLSYFDGNYWGEGTQVTVSS” the value was “high polyreactivity”; for “QVQLVESGGGLVQAGGTLRLSCAASGSTFELNVMGWYRQAPGKERELVAAISSGTSTNYADSVKGRFTISRDNAKYTVYLHLKSVKPVDTAVYYCAADPFTIPTSDFYYWGQVTQVTVSS”, “low polyreactivity”.
The value for “QVQLVESGGGLVQAGGTLRLSCAASGSTFEYYAMGSYRQAPGKEREFVAAISSGPSTTYADSVKGRFTISRDNSKNTVYLQMNSLKPEDTAVYYCARRDGTTQALFGYDYWGQGTQVTVSS” was “low polyreactivity”; that for “QVQLVESGGGLVQAGGTLRLSCAASGSTFFVYAMAWYRQEPGKERELVAAISSRGSTYYADSVKGRFTISRDNAKNTVFLQMISLKPEDSAVYFCAAEYTVSYLRMDYWGQGTQVTVSS” was “low polyreactivity”; that for “QVQLVESGGGLVQAGGTLRLSCAATGITFDAYVMGWYRQAPGKERELVAGIYSGGSTYYADSVKGRFTISRDNAKNTVYLQMNSLKPEDTAVYYWARENYRFADEPPVSRQIPYDYWGQGTQVTVSS” was “low polyreactivity”.
For “QVQLVESGGGLVQAGGTLRLSCAATGSTFPYNAMGWYRQAPGKERELVAAINSAGGTNYADSVKGRFTISRDNAKNTVYLQMNSLKPEDTAVYYCAADGSGYYDWYYYWGQGTQVTVSS” the value was “low polyreactivity”; for “QVQLVESGGGLVQAGGTLRLSCSASGRTFYSYAMGWYRQAPGKERELVAAISYTGASTFYADSVKGRFTISRDNAKNTVYLQMNSLIPEDTAVYYCAAESQPSYGETDEYWGQGTQVTVSS”, “high polyreactivity”.
On to “QVQLVESGGGLVQAGGTLRLSGDASGSTFPANAMGWYRQAPGKERELVAAISYRGGSTYYADSVKGRFTISRDNAKNTVYLQMNSLKPEDTAVYYCAATPWYRTRTYDYWGQGTQVTVSS”, for which the “polyreactivity (PSR sort gate)” value is recorded as “high polyreactivity”.
For “QVQLVESGGGLVQAGGTLRLTCAASGFTLTRNAMGWYRQAPGKERELVAAISRSGGSTYYADSVKGRFTISRDNAKNTVYLQMNSLKPEDTAVYYCAADDKYFYPGNGYWGLGTQVTVSS” the value was “high polyreactivity”; for “QVQLVESGGGLVQAGGTLSLSCAASGGTFSTNTMGWYRQATGKERELVAAITEGTGNTYYADSVKGRFTISRDNAKNTVYLQMNSLKPEDTAVYYCATAYAVYHVEYGYWGQGTQVTVSS”, “low polyreactivity”.
For “QVQLVESGGGLVQAGRILRISCAASGFKYAMGWYRQEPGKERELVAAISSGGITSYADSVKGRFTISRDNAKNTVYLQMNSLKPEDTAVYYCAAALRRRRAYFDYWGQGTQVTVSS”, the “polyreactivity (PSR sort gate)” value is recorded as “high polyreactivity”.
The value for “QVQLVESGGGLVQAGRSLPLSCAASGRIIELYGMGWKRPATGKERELVAAMSYGGGSTYYAESVKGRFTISRDNAKNTVYLQMNSLKPEDTAVYYCAARYRTLTKYYWGQGTQVTVSS” was “low polyreactivity”; that for “QVQLVESGGGLVQAGRSLRLICAASGRTFSPNTMGWYRQAPGKEREFVAAINRSGGTTYYADSVKGRFTISRDIAKNTVYLQMNSRKPEDTAVYYCAADSIVPIYRGNDDNYWGQGTQVTVSS” was “low polyreactivity”.
For the sequence “QVQLVESGGGLVQAGRSLRLSCAASGFTFGYYAMGWYRQAPGKERELVASISITAGSTYYADSVKGRFTISRDNAKNTVYLQMNSLTPEDTAVYYCAAKRRTRQSYYTEYYWGQGTQVTVSS”, the “polyreactivity (PSR sort gate)” value is “high polyreactivity”.
Consider “QVQLVESGGGLVQAGRSLRLSCAASGFTFVWYAMGWYRQAPGTERELVAAISRRGTRTYYADSVKGRFTISRDNAKNTVYLQMNSLKPEDTAVYYCAASNGYQAVTYDYWGQGTQVTVSS”, for which the “polyreactivity (PSR sort gate)” value is “high polyreactivity”.
For “QVQLVESGGGLVQAGRSLRLSCAASGIISYRNGMGGYRQAPGKERELVASISKRADSTYYADSVKGRFTISRDNAKNTVYLQLNSLKPEDTAVYYCAARRLITCYGQTHYGYWGQGTQVTVSS” the value was “high polyreactivity”; for “QVQLVESGGGLVQAGRSLRLSCAASGITFPVYPMGWYRQAPGKERELVATITSSGGRTYYADSVKGRFTISRDNAKNTVYLQMNSLKPEDSAVYYCAAANGKGQGGYDYWGHGTQVTVSS”, “high polyreactivity”; for “QVQLVESGGGLVQAGRSLRLSCAASGLIFRYYPMGWYRQAPGKEREFVAAISGRGASTYYADSVKGRFTISRDYAKNSVYLQMNCLKPEDTAVYYCATFFPSAVVAFHMDYWGQGTQVTVSS”, “low polyreactivity”.
As for “QVQLVESGGGLVQAGRSLRLSCAASGRIFFGYAMGWYRQAPGKERELVAVISSGCRTYYADSVKGRFTISRDNAKNTVYLQMNSLKAEDTAVYYCAAIIPPTKQRGYYYVGRSEYDYWGQGSQVTVSS”, the “polyreactivity (PSR sort gate)” value is on record as “low polyreactivity”.
The value for “QVQLVESGGGLVQAGRSLRLSCAASGRIFQWNAMGWYRQAPGKERELVADITYSGSSTNYADSVKGRFTISRDNAKNSVYLQMNSVKPEVSAVYYCTRDFYQYLSYFWHYVYWGQGTQETVSS” was “low polyreactivity”; that for “QVQLVESGGGLVQAGRSLRLSCAASGRIFRSYAMGWYRQAAGKERELVAAINYSGGNTYYADSVKGRFTISRDNAKNTVYLQLNCVKPDDTAVFYCNARGYYYSSRYGYWGQGTQVTVSS” was “high polyreactivity”.

Values taken from the nanobody polyreactivity screen of Harvey et al. (2022).
